Experimental data taken from publication PMC2952662.

Target: N-terminally His6-tagged Akt1 PH domain S2-S128 construct (human)
Test: SPR

Kd: 1400 nM
koff: 0.000116 s⁻¹
Substance: Akt inhibitor VI, a 15 residue peptide derived from the oncogene TCL1
